These results are taken from PMC3950705.

The target of series [1] is T1, hRev1 330-833 (core polymerase domain) (human, UniProt Q9UBZ9 330-833).
T1 sequence: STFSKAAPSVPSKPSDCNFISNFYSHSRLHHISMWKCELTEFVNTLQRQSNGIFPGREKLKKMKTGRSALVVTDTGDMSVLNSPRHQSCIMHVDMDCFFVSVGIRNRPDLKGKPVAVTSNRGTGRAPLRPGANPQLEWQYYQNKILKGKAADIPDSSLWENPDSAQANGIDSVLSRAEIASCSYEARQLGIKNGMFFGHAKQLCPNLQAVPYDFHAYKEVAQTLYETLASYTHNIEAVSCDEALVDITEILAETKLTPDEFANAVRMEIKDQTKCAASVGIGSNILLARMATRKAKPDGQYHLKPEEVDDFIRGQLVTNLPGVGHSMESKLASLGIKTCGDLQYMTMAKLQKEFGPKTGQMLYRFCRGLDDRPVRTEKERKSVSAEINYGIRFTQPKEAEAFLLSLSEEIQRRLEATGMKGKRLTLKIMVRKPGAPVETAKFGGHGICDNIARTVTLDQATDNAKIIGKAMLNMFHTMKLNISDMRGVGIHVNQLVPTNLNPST
Nature of the series: fluorescence polarization. For orientation: Polarisation of emitted light reports the rotation of a fluorescent probe.

Series [2] addresses T1, hRev1 330-833 (core polymerase domain). Nature of the series: stopped-flow fluorescence quenching.
For series [3] the target is unchanged. Nature of the series: stopped-flow fluorescence quenching. This is another data set of the same source.
The target is the same in series [4]. Briefly: DMS footprinting.

The Kd is the concentration at which binding is half-saturated. Higher therefore signals lower affinity.

As to TATGTGACTATGCTGGGTAGGGGAGGAT (ssDNA) [ss-non-G4 DNA 28-mer], binding in series [1] was characterised by a dissociation constant (Kd) of 65.7 ± 8.8 nM.

B1: 11/28-mer primer-template non-G4 DNA (mixed)
DNA 1: TATGTGACTATGCTGGGTAGGGGAGGAT
DNA 2: ATCCTCCCCTA
Molecule B1 returned a Kd in series [1] of 129 ± 20 nM.

B2: 11/28-mer primer-template G4 DNA (mixed)
DNA 1: TGGGTGGGTAGGGTGGGTAGGGGAGGAT
DNA 2: ATCCTCCCCTA
Molecule B2 gave a Kd in series [1] of 8.4 ± 2.5 nM.

B3: FAM/Dab 18/42-mer G4 DNA (mixed)
DNA 1: TGAGGGTGGGTAGGGTGGGTGCGTCTGCGGCTGGCTCGAGGC
DNA 2: GCCTCGAGCCAGCCGCAG
On to B3, for which the binding result in series [2] is reported as “binds”. In the case of TGAGGGTGGGTAGGGTGGGTGCGTCTGCGGCTGGCTCGAGGC (structured_DNA) [FAM/Dab 42-mer ss-G4 DNA (Myc2345 G14/23T)], in series [3], the binding result is listed as “binds”.

B4: 23/42-mer Myc2345 G14/23T primer-template (mixed)
DNA 1: B3 DNA 1
DNA 2: GCCTCGAGCCAGCCGCAGACGCA
Take B4: in series [4], the binding result was “binds”. Take TGGGTGGGTAGGGTGGGTAGGGGAGGAT (structured_DNA) [ss-G4 DNA 28-mer]: in series [1], the Kd came to 15.7 ± 8.7 nM.
